Measured values published in patent publication US20200207850A1 (MacroGenics, published 2020).

Experiments:
[1] = target: ROR1 on JIMT-1 and A549 target cells (UniProt Q01973 30-937, limits assumed); experiment: cell-based or functional assay
[2] = target: T1, B7-H3 on A498 and JIMT-1 target cells (UniProt Q5ZPR3 29-534, limits assumed); experiment: cell-based or functional assay
T1 sequence (looked up): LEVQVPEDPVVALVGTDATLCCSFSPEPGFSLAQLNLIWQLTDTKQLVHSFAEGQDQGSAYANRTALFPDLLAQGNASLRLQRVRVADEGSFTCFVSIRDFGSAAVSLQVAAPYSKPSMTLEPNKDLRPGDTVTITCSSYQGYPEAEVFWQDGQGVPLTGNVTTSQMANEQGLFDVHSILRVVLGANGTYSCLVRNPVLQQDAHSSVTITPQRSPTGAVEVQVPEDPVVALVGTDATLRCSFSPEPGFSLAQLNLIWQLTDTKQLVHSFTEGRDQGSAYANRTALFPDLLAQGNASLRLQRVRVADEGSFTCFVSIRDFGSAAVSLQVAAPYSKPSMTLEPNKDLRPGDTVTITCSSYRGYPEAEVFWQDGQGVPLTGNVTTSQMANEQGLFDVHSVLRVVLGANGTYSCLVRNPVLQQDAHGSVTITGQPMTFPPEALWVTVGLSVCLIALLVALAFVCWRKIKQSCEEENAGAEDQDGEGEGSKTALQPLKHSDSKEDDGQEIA

[3] = target: T2, CD8 on human T cells (PBMC) (human, UniProt P01732 22-235); experiment: flow cytometry on human PBMC gated CD5+/CD4- (cells carry CD8 and CD3), detection with anti-human Fc-PE
T2 construct: whole, on cells; The CD8+ (CD5+ CD4-) cells also carry CD3; also called CD5+ CD4- gated PBMC; CD8+ T cells
T2 sequence (P01732 22-235): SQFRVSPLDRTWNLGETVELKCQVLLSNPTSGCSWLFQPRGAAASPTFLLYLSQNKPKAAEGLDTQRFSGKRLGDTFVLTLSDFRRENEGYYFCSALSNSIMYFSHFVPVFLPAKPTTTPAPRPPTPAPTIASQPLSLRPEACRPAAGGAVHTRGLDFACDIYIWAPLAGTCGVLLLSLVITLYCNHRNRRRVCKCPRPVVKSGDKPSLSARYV

B1: ROR1 mAb 1/CD3 mAb 2/CD8 mAb 2 Tri-Specific Binding Molecule (other)
chain 1: QLVLTQSPSASASLGSSVKLTCTLSSGHKTDTIDWYQQQPGKAPRYLMKLEGSGSYNKGSGVPDRFGSGSSSGADRYLTISSLQSEDEADYYCGTDYPGNYLFGGGTQLTVLGGGGSGGGGEVQLVESGGGLVQPGGSLRLSCAASGFTFSTYAMNWVRQAPGKGLEWVGRIRSKYNNYATYYADSVKGRFTISRDDSKNSLYLQMNSLKTEDTAVYYCVRHGNFGNSYVSWFAYWGQGTLVTVSSGGCGGGEVAALEKEVAALEKEVAALEKEVAALEKGGGDKTHTCPPCPAPEAAGGPSVFLFPPKPKDTLMISRTPEVTCVVVDVSHEDPEVKFNWYVDGVEVHNAKTKPREEQYNSTYRVVSVLTVLHQDWLNGKEYKCKVSNKALPAPIEKTISKAKGQPREPQVYTLPPSREEMTKNQVSLWCLVKGFYPSDIAVEWESNGQPENNYKTTPPVLDSDGSFFLYSKLTVDKSRWQQGNVFSCSVMHEALHNHYTQKSLSLSPGK
chain 2: QAVVTQEPSLTVSPGGTVTLTCRSSTGAVTTSNYANWVQQKPGQAPRGLIGGTNKRAPWTPARFSGSLLGGKAALTITGAQAEDEADYYCALWYSNLWVFGGGTKLTVLGGGGSGGGGQEQLVESGGGLVQPGGSLRLSCAASGFTFSDYYMSWVRQAPGKGLEWVATIYPSSGKTYYADSVKGRFTISSDNAKNSLYLQMNSLRAEDTAVYYCARDSYADDAALFDIWGQGTTVTVSSGGCGGGKVAALKEKVAALKEKVAALKEKVAALKE
heavy: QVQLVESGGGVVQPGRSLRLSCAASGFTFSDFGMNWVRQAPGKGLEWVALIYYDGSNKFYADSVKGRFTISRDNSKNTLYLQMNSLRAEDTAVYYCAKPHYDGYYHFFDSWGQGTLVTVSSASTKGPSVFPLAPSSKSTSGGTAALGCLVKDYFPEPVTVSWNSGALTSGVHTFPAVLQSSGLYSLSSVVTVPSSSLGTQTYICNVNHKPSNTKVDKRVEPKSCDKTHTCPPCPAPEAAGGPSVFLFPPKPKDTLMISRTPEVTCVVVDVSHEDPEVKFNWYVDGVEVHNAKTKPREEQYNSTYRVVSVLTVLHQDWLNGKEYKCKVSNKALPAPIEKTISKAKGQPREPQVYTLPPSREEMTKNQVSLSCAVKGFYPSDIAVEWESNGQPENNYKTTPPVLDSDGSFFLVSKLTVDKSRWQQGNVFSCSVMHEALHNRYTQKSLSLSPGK
light: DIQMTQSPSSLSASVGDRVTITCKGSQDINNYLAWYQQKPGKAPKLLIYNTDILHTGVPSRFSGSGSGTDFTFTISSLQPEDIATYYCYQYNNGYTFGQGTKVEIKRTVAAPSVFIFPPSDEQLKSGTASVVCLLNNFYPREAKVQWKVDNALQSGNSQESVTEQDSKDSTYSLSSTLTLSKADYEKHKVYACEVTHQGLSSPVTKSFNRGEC
- EC50 (nM) of killing, CD4+ effector cells, JIMT1-luc target cells, E:T 5:1 [1]: 0.277 nM
- EC50 (nM) of killing, CD8+ effector cells, JIMT1-luc target cells, E:T 5:1 [1]: 0.0021 nM
- EC50 (nM) of killing, PanT effector cells, JIMT1-luc target cells, E:T 5:1 [1]: 0.0057 nM

B2: B7-H3 mAb 1/CD8 mAb 1/CD3 mAb 2 Tri-Specific Binding Molecule (other)
chain 1: DVQINQSPSFLAASPGETITINCRTSRSISQYLAWYQEKPGKTNKLLIYSGSTLQSGIPSRFSGSGSGTDFTLTISGLEPEDFAMYYCQQHNENPLTFGAGTKLELRGGGSGGGGQVQLVQSGAEVKKPGASVKVSCKASGYTFTSYWMQWVRQAPGQGLEWMGTIYPGDGDTRYTQKFKGRVTITADKSTSTAYMELSSLRSEDTAVYYCARRGIPRLWYFDVWGQGTTVTVSSGGCGGGEVAALEKEVAALEKEVAALEKEVAALEKGGGDKTHTCPPCPAPEAAGGPSVFLFPPKPKDTLMISRTPEVTCVVVDVSHEDPEVKFNWYVDGVEVHNAKTKPREEQYNSTYRVVSVLTVLHQDWLNGKEYKCKVSNKALPAPIEKTISKAKGQPREPQVYTLPPSREEMTKNQVSLWCLVKGFYPSDIAVEWESNGQPENNYKTTPPVLDSDGSFFLYSKLTVDKSRWQQGNVFSCSVMHEALHNHYTQKSLSLSPGK
chain 2: DIQMTQSPSSLSASVGDRVTITCRASQDISNYLNWYQQKPGKAPKLLIYYTSRLHSGVPSRFSGSGSGTDFTLTISSLQPEDIATYYCQQGNTLPPTFGGGTKLEIKGGGSGGGGEVQLQQSGAELVKPGASVKLSCTASGFNIKDTYIHFVRQRPEQGLEWIGRIDPANDNTLYASKFQGKATITADTSSNTAYMHLCSLTSGDTAVYYCGRGYGYYVFDHWGQGTTLTVSSGGCGGGKVAALKEKVAALKEKVAALKEKVAALKE
heavy: EVQLVESGGGLVQPGGSLRLSCAASGFTFSTYAMNWVRQAPGKGLEWVGRIRSKYNNYATYYADSVKDRFTISRDDSKNSLYLQMNSLKTEDTAVYYCVRHGNFGNSYVSWFAYWGQGTLVTVSSASTKGPSVFPLAPSSKSTSGGTAALGCLVKDYFPEPVTVSWNSGALTSGVHTFPAVLQSSGLYSLSSVVTVPSSSLGTQTYICNVNHKPSNTKVDKRVEPKSCDKTHTCPPCPAPEAAGGPSVFLFPPKPKDTLMISRTPEVTCVVVDVSHEDPEVKFNWYVDGVEVHNAKTKPREEQYNSTYRVVSVLTVLHQDWLNGKEYKCKVSNKALPAPIEKTISKAKGQPREPQVYTLPPSREEMTKNQVSLSCAVKGFYPSDIAVEWESNGQPENNYKTTPPVLDSDGSFFLVSKLTVDKSRWQQGNVFSCSVMHEALHNRYTQKSLSLSPGK
light: QAVVTQEPSLTVSPGGTVTLTCRSSTGAVTTSNYANWVQQKPGQAPRGLIGGTNKRAPWTPARFSGSLLGGKAALTITGAQAEDEADYYCALWYSNLWVFGGGTKLTVLGRTVAAPSVFIFPPSDEQLKSGTASVVCLLNNFYPREAKVQWKVDNALQSGNSQESVTEQDSKDSTYSLSSTLTLSKADYEKHKVYACEVTHQGLSSPVTKSFNRGEC
- EC50 (nM) of killing, CD4+ effector cells, JIMT1-luc target cells, E:T 5:1 [2]: 1.1 nM
- EC50 (nM) of killing, CD8+ effector cells, JIMT1-luc target cells, E:T 5:1 [2]: 0.412 nM
- EC50 (nM) of killing, PanT effector cells, JIMT1-luc target cells, E:T 5:1 [2]: 0.535 nM

B3: 5T4 mAb 1/CD3 mAb 2 Low/CD8 mAb 1 Tri-Specific Binding Molecule (other)
chain 1: DIQMTQSPSSLSASVGDRVTITCRASQGISNYLAWFQQKPGKAPKSLIYRANRLQSGVPSRFSGSGSGTDFTLTISSLQPEDVATYYCLQYDDFPWTFGQGTKLEIKGGGSGGGGEVQLVESGGGLVQPGGSLRLSCAASGFTFSTYAMNWVRQAPGKGLEWVGRIRSKYNNYATYYADSVKGRFTISRDDSKNSLYLQMNSLKTEDTAVYYCVRHGNFGNSYVTWFAYWGQGTLVTVSSASTKGEVAACEKEVAALEKEVAALEKEVAALEKGGGDKTHTCPPCPAPEAAGGPSVFLFPPKPKDTLMISRTPEVTCVVVDVSHEDPEVKFNWYVDGVEVHNAKTKPREEQYNSTYRVVSVLTVLHQDWLNGKEYKCKVSNKALPAPIEKTISKAKGQPREPQVYTLPPSREEMTKNQVSLWCLVKGFYPSDIAVEWESNGQPENNYKTTPPVLDSDGSFFLYSKLTVDKSRWQQGNVFSCSVMHEALHNHYTQKSLSLSPGK
chain 2: QAVVTQEPSLTVSPGGTVTLTCRSSTGAVTTSNYANWVQQKPGQAPRGLIGGTNKRAPWTPARFSGSLLGGKAALTITGAQAEDEADYYCALWYSNLWVFGGGTKLTVLGGGGSGGGGQVQLVQSGAEVKKPGASVKVSCKASGYTFTSFWMHWVRQAPGQGLEWMGRIDPNRGGTEYNEKAKSRVTMTADKSTSTAYMELSSLRSEDTAVYYCAGGNPYYPMDYWGQGTTVTVSSASTKGKVAACKEKVAALKEKVAALKEKVAALKE
heavy: EVQLQQSGAELVKPGASVKLSCTASGFNIKDTYIHFVRQRPEQGLEWIGRIDPANDNTLYASKFQGKATITADTSSNTAYMHLCSLTSGDTAVYYCGRGYGYYVFDHWGQGTTLTVSSASTKGPSVFPLAPSSKSTSGGTAALGCLVKDYFPEPVTVSWNSGALTSGVHTFPAVLQSSGLYSLSSVVTVPSSSLGTQTYICNVNHKPSNTKVDKRVEPKSCDKTHTCPPCPAPEAAGGPSVFLFPPKPKDTLMISRTPEVTCVVVDVSHEDPEVKFNWYVDGVEVHNAKTKPREEQYNSTYRVVSVLTVLHQDWLNGKEYKCKVSNKALPAPIEKTISKAKGQPREPQVYTLPPSREEMTKNQVSLSCAVKGFYPSDIAVEWESNGQPENNYKTTPPVLDSDGSFFLVSKLTVDKSRWQQGNVFSCSVMHEALHNRYTQKSLSLSPGK
light: DVQINQSPSFLAASPGETITINCRTSRSISQYLAWYQEKPGKTNKLLIYSGSTLQSGIPSRFSGSGSGTDFTLTISGLEPEDFAMYYCQQHNENPLTFGAGTKLELRRTVAAPSVFIFPPSDEQLKSGTASVVCLLNNFYPREAKVQWKVDNALQSGNSQESVTEQDSKDSTYSLSSTLTLSKADYEKHKVYACEVTHQGLSSPVTKSFNRGEC
- EC50 (read off the curve) [3]: ~0.8 nM
